From patent publication US20240343803A1 (SHANDONG SIMCERE BIOPHARMACEUTICAL, published 2024)

Columns and labels:
[1] = molecular target: T1, full-length human TIGIT on CHO-K1 cells (CHO-K1 human TIGIT) (human, UniProt Q495A1 22-244); test: FACS, CHO-K1 human TIGIT high expression strain
T1 construct: NCBI XP_024309156.1; entry includes the signal peptide; also called high expression strain 1D2; medium expression strain 2D10
T1 sequence: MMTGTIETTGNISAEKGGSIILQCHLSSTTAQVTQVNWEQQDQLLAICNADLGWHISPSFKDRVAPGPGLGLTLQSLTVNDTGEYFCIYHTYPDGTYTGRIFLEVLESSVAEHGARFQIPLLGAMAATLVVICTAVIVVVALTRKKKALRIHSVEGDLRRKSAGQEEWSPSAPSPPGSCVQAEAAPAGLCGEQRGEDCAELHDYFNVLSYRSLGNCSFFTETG
Protocol: (§1) The collected cells were washed once with PBS (Hyclone, Cat NO. SH30256), resuspended to 2×10⁵/50 μL with 1% BSA-PBS. The antibodies were diluted to 80 nM with 1% BSA-PBS (diluted by 3-fold serial dilution for 12 concentration points). The 50 μL cells were then mixed with 50 μL diluted antibodies, and then incubated at 4° C. for 60 minutes. […] After washing twice with PBS, the cell samples were resuspended with 1% BSA-PBS, 100 μL/well and then analyzed by flow cytometry (BD, Canto II).

[2] = molecular target: T1, full-length human TIGIT on CHO-K1 cells …; test: FACS, low expression strain
Protocol: as §1, with “CAT #SH30256),” for “Cat NO. SH30256),”, “II). […] [0298] (c) The effect of anti-TIGIT chimeric antibodies blocking the interaction between Bio-CD155-His and CHO-K1 human TIGIT high expression cell strains detected by FACS” for “II).”

[3] = molecular target: T2, full-length cynomolgus monkey TIGIT on CHO-K1 cells (CHO-K1 cynomolgus monkey TIGIT) (cynomolgus monkey); test: FACS, CHO-K1 cynomolgus monkey TIGIT cells
T2 construct: NCBI XP_015300911.1; also called cynomolgus monkey TIGIT cells
T2 sequence (chain, as listed by the source limits assumed): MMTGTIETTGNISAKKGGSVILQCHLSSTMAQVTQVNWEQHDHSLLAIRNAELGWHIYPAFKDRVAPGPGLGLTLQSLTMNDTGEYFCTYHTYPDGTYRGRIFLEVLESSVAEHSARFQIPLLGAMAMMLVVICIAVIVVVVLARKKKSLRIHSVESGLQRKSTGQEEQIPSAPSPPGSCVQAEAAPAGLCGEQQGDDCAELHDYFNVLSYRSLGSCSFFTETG
Protocol: as §1

[4] = molecular target: T3, cynomolgus monkey TIGIT ECD-mFc (extracellular domain of cynomolgus monkey TIGIT and mouse IgG2a Fc fragment) (cynomolgus monkey); test: ELISA
T3 construct: entry includes the signal peptide, limits not readable here
Protocol: (§2) After discarding the coating solution, the plate was added with 5% skim milk powder (Sangon Biotech, CAT #A600669-0250)-PBS, 250 μL/well, and incubated at 37° C. for 2-4 hours. […] The enzyme-labeled plate was then washed with 0.05% Tween 20-PBS for 3 times on the Microplate Washer, added with tested antibodies diluted to 13 nM with 1% BSA (diluted by 3-fold serial dilution for 12 concentration points), 50 μL/well, and incubated at 37° C. for 1.5-2 hours. The plate was washed with 0.05% Tween 20-PBS for 3 times on the Microplate Washer, then added with HRP enzyme-labeled antibodies (Merck, CAT #AP113P) diluted with 1% BSA (Sangon Biotech, CAT #A500023-0100)-PBS at a dilution ratio of 1:5000, 50 μL/well, and incubated at 37° C. for 1 hour. After washing 3 times with 0.05% Tween 20-PBS on the Microplate Washer, the plate was added with TMB chromogenic solution (KPL, CAT #52-00-03), 50 μL/well, and incubated at room temperature for 7-10 minutes. 1M HCL, 50 μL/well, was then added into the plate to terminate the reaction, and the OD450 nm was read by a microplate reader (Biotek, Powerwave HT). […] (b) The binding activity of anti-TIGIT chimeric antibodies to CHO-K1 human TIGIT (cells with high, medium and low expression levels) and CHO-KI cynomolgus monkey TIGIT detected by FACS.

[5] = molecular target: T4, human TIGIT ECD-mFc (fusion protein of extracellular domain of human TIGIT and mouse IgG2a Fc fragment) (human); test: ELISA
T4 chain: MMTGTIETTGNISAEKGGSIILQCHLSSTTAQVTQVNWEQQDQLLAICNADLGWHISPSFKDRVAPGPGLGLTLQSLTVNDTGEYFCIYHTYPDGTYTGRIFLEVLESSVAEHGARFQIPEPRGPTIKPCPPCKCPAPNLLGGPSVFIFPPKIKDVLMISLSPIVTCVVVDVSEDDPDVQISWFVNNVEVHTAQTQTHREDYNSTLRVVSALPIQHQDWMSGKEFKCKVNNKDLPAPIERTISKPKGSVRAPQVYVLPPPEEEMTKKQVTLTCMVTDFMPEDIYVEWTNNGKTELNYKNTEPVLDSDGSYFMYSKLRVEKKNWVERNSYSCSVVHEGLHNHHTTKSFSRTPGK
Protocol: as §2

[6] = molecular target: T1, full-length human TIGIT on CHO-K1 cells …; test: competition FACS; blocked: Bio-CD155-His binding to CHO-K1 human TIGIT cells
Protocol: The collected cells were washed once with PBS (Hyclone, SH30256), resuspended to 2×10⁵/40 μL with 1% BSA-PBS. The antibodies were diluted to 210 nM with 1% BSA-PBS (diluted by 3-fold serial dilution for 12 concentration points). […] The 40 μL cells were then mixed with 40 μL diluted antibodies and 40 μL diluted Bio-CD155-His, and then incubated at 4° C. for 60 minutes. The cells were washed twice with PBS, resuspended with APC labeled streptavidin (dilution ratio 1:1700, Biolegend, 405243), 100 μL/well, and incubated at 4° C. for 40 minutes. The cell samples were washed twice with PBS, resuspended with 1% BSA-PBS (100 μL/well) and then analyzed by flow cytometry (BD, Canto II).

[7] = molecular target: T1, full-length human TIGIT on CHO-K1 cells …; test: FACS, medium expression strain
Protocol: as §1, with “CAT #SH30256),” for “Cat NO. SH30256),”, “II). […] [0298] (c) The effect of anti-TIGIT chimeric antibodies blocking the interaction between Bio-CD155-His and CHO-K1 human TIGIT high expression cell strains detected by FACS” for “II).”

B1: RG6058-hIgG1 (antibody, V domains shown)
VH: EVQLQQSGPGLVKPSQTLSLTCAISGDSVSSNSAAWNWIRQSPSRGLEWLGKTYYRFKWYSDYAVSVKGRITINPDTSKNQFSLQLNSVTPEDTAVFYCTRESTTYDLLAGPFDYWGQGTLVTVSS
VL: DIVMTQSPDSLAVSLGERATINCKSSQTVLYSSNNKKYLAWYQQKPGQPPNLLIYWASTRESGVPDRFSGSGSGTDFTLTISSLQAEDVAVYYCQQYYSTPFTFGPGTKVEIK
notes: human IgG1 format by its name; also called Roche RG6058; control antibody RG6058
What does the source list for B1?
EC50 (read off the curve) [1]: ~0.6 nM; EC50 [2]: 0.495 nM; EC50 (read off the curve) [3]: ~1 nM; EC50 [4]: 0.0158 nM; EC50 [5]: 0.0151 nM; IC50 (read off the curve) [6]: ~0.3 nM; EC50 [7]: 0.616 nM
